As usually defined, the Kd is a measure of binding affinity in units of concentration. Broadly, the koff is a measure of how fast the partners let go of each other. The kon is the second-order rate constant of association. Lower therefore signals slow association. Broadly, the EC50 is the midpoint of the concentration-response curve. Lower therefore signals greater potency.

Changes are numbered by the printed parent chain.

Sequences and labels used below:
B1: S009-F2.47.1 (antibody, human IgG1, kappa, V domains shown)
VH: QVQLQQPGAELVKPGASVKLSCKASGYTFTSYWMHWVKQRPGQGLEWIGMIHPNSGSTNYNEKFKSKATLTVDKSSSTAYMQLSSLTSEDSAVYYCARPVVPYWYFDVWGTGTTVTVSS
VL: DIVMTQSQKFMSTTVGDRVSITCKASQNVGTAVAWYQQKPGQSPKLLIYSASNRYTGVPDRFTGSGSGTDFTLTISNMQSEDLADYFCQQSSSYPLTFGAGTKLELKR
notes: human-murine chimeric antibody, human IgG1/kappa constant regions
B2: S009-F1.2.12 (antibody, human IgG1, kappa, V domains shown)
VH: QVQLKQTGPGLVQPSQSLSITCTVSGFSLTNYAVHWVRQSPGKGLEWLGVIWSGGATDYNTVFISRLSISKDNSKSQVFFKVNSLQVDDTAIYYCARTGSGYAMDYWGQGTSVTVSS
VL: DIVLTQSPATLSVTPGDRVSLSCRTSHNVNTYLHWYQQKSHESPRLLIKYASQSISEIPSRFSGSGSGTNFTLSINSVETEDFGMYFCHQTNRWPLTFGAGTKLELKR
notes: as for B1
B3: S009-F2.16.10 (antibody, human IgG1, kappa, V domains shown)
VH: QVQLQQPGAELIKPGASVKLSCKASGYTFTSYWMHWVKQRPGQGLEWIGIIHPNIGSTNYNERFKSKATLTVDKSSSTAYMQLSSLTSEDSAVYYCARRSSNYGDWYFDVWGTGTTVTVSS
VL: DIVMTQSHRFMSTSVGDRVSITCKASQDVGTSVAWYQQKPGQSPKLLIYWASTQHTGVPDRFTGSGSGTDFTLTINNVQSEDLLDYFCQQYSSYPLTFGAGTKLELKR
notes: as for B1
B4: S009-F1.57.1 (antibody, human IgG1, kappa, V domains shown)
VH: EAQLQQSGAVFVKPGASVKLSCTASGFSSKDIFLHWVKQRPEQGLEWIGRIDPASDNTIYDPKFQDRATITSDRSSNTAYLQFSSLTSEDTAVYFCLYFDFWGQGTTLTVSS
VL: DIVMTQATPSISVTPGESVSISCRSSESLLHSNGNTYLYWFLQRPGQSPQLLIYRMSNLASGVPDRFSVSGSGTAFTLRISRVEAEDVGVYYCMQHLEYPLTFGAGTKLELKR
notes: as for B1
B5: S009-F1.62.9 (antibody, human IgG1, kappa, V domains shown)
VH: EVQLQQSGADLVKPGASVKLSCTVFGLNFKDTFMHWVRQRPEQGLEWIGRIDPANDNSIYGPKFQDKATITADTSSNTAYLHLSSLTSEDTAVYYCLYFDNWGHGTTLTVSS
VL: B4 VL with T8A, P9S, I11E, S12P, S26D, E27K, N35H, T36N, Q50H, V69G
notes: as for B1
B6: S009-F1.25.10 (antibody, human IgG1, kappa, V domains shown)
VH: EVQLQQSGPELVKPGASLKISCKASGYSFTDYTMNWVKQSHGKNLEWIGLFNPYNGGISYNQKFKGKATLTVDKSSNTAYMELLSLTSDDSAVYFCARDGRGGFYAMDYWGQGTSVTVSS
VL: DIQMTQTTSSLSASLGDRVTISCRASQDISIYLNWYQQKPDGPVKLLIYYTSRLHSGVPSRFSGSGSGTDFSLTISNLEQEDIATYFCQQGYTLPPWTFGGGTKLEIKR
notes: as for B1
B7: S009-F1.59.1 (antibody, human IgG1, kappa, V domains shown)
VH: EVKLEGSGGGLVQPGGSMMLSCVATGFTFSSYWMNWVRQSPDRGLEWVAEIRLKSNGFAAFYAESVKGRFTISRDDSKSSVYLQMNNLRTEDTGIYYCTYFVHWGQGILVTVSE
VL: DIVLTQSPTSLAVSLGQRATISCRTSESVEYFGTILIQWYQQKPGQPPKLLIFGASNVESGVPARFSGSGSGTDFSLNIHPVEEEDIAMYFCQQNRKVPYTFGGGTTLELKR
notes: as for B1

T1 sequence (Q13421 other isoform, or with tags, fused parts or gaps): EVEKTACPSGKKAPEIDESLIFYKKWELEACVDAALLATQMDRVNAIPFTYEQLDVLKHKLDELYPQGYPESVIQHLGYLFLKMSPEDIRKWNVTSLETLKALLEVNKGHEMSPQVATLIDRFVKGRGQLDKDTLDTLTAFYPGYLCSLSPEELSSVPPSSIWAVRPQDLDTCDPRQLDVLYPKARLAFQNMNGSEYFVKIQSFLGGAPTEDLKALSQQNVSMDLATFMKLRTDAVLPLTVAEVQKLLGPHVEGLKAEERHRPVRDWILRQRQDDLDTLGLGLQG
T2 sequence (Q13421 other isoform, or with tags, fused parts or gaps): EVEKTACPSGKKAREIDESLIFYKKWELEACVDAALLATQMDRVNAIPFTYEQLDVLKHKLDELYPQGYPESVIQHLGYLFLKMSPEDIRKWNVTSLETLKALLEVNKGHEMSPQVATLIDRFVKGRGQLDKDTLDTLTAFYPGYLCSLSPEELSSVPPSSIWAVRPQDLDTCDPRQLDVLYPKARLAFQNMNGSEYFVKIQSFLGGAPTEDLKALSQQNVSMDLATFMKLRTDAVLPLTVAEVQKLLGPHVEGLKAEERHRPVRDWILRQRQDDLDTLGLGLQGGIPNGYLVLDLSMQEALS

One assay concerns the target T1, human MSLN-FL-his protein (human, UniProt Q13421 296-580).
T1 construct: made in HEK293E cells, purified on nickel column; also called hMSLN-FL-his; human MSLN full-length protein; not shown: His tag
Nature of the assay: competitive ELISA; row F2.58.8. (ELISA stands for enzyme-linked immunosorbent assay.)
As for B1, the competition rate stood at 31%.
B2: the competition rate was found to be 32%.
As to B3, the competition rate worked out at 18%.

The next assay deals with T1, human MSLN-FL-his protein. The assay is described as follows: competitive ELISA; row F2.39.3.
Protocol: (§1) In order to identify antigen-binding sites of antibodies, MSLN chimeric antibodies were grouped using competitive ELISA.
(§2) The chimeric antibodies were diluted to 2 μg/mL with PBS and allowed to coat 96-well high-adsorption ELISA plates at 50 μL/well. After the plates were coated at 4° C. overnight, 250 μL of a blocking buffer (PBS containing 2% (w/w) BSA) was added for two hours of blocking at room temperature. 40 μg/mL of the antibodies to be tested were added, and then the human MSLN-FL-His protein with an EC₈₀ concentration corresponding to each of the antibodies to be tested was added for incubation for 2 h. The plates were washed 5 times with PBS, an HRP-labeled anti-His secondary antibody (purchased from Genescript, Cat. No. A00612) was then added for incubation for 1 h, and the plates were washed 5 times again. A TMB substrate was added at 50 μL/well, and after 10 minutes of incubation at room temperature, a stop solution (1.0 M HCl) was added at 50 μL/well. OD₄₅₀ nm values were read using an ELISA plate reader (Insight, purchased from PerkinElmer), and the competition rate between the antibodies was calculated according to the OD₄₅₀ nm values using a formula.
For the molecule B1, the competition rate amounted to 23%.
With B2, the competition rate amounted to 2%.
The same measure, in the same setting: for B3 the value was 31%.

The target in another assay is T1, human MSLN-FL-his protein. Nature of the assay: competitive ELISA; row Tab108 (R3).
Protocol: as §1, §2
With B1, the competition rate was -158%.
On to B2, for which the competition rate is -29%.
B3: the competition rate was -156%.

A further assay concerns the target T1, human MSLN-FL-his protein. Nature of the assay: competitive ELISA; row F2.24.10.
Protocol: as §1, §2
In the case of B1, the competition rate came out at 56%.
In the case of B2, the competition rate is -17%.
Consider B3, for which the competition rate stood at 88%.

Another assay deals with T1, human MSLN-FL-his protein. Nature of the assay: competitive ELISA; row F1.35.24.
Protocol: as §1, §2
As for B1, the competition rate is -12%.
Regarding B2, the competition rate amounted to 4%.
B3: the competition rate is -18%.

The next assay concerns the target T1, human MSLN-FL-his protein. Nature of the assay: competitive ELISA; row F2.16.10.
Protocol: as §1, §2
In the case of B1, the competition rate was determined as 88%.
As for B2, the competition rate is -81%.
As to B3, the competition rate came to 103%.

A further assay addresses T2, human MSLN protein endogenously expressed on OVCAR3 tumor cells (human, UniProt Q13421 296-598).
T2 construct: whole, on cells; Endogenous target on OVCAR3 cells; kept apart from the recombinant full-length construct; also called mesothelin
Nature of the assay: FACS on OVCAR3 cells.
Protocol: (§3) The desired cells were expanded to the logarithmic growth phase in a T-75 cell culture flask. […] After the cells from the previous step were subjected to cell counting, the cell pellet was resuspended to 2×10⁶ cells/mL in a blocking buffer of [PBS+2% (w/w) BSA] and added into a 96-well FACS reaction plate at 50 μL/well. A chimeric antibody (a sample to be tested) was added at 50 μL/well, and the plate was incubated on ice for 2 h. […] After the plate was centrifuged and washed 5 times with a PBST buffer, assay and analysis were performed by FACS (FACS CantoII, purchased from BD). Data analysis was performed by software (Flowjo) to obtain the mean fluorescence intensity (MFI) of the cells.
As for B4, the “Maximum mean fluorescence intensity” value amounted to 948.
With B5, the “Maximum mean fluorescence intensity” value came out at 425.
For B6, the “Maximum mean fluorescence intensity” value stood at 429.
Take B7: the “Maximum mean fluorescence intensity” value turned out to be 445.

The target in the next assay is T3, human MSLN full-length protein (NCBI: AAH09272.1) expressed on HEK293T-hMSLN-B8 cells (human, UniProt Q13421 296-598).
T3 construct: Whole encoded precursor
T3 sequence (Q13421 other isoform, or with tags, fused parts or gaps limits assumed): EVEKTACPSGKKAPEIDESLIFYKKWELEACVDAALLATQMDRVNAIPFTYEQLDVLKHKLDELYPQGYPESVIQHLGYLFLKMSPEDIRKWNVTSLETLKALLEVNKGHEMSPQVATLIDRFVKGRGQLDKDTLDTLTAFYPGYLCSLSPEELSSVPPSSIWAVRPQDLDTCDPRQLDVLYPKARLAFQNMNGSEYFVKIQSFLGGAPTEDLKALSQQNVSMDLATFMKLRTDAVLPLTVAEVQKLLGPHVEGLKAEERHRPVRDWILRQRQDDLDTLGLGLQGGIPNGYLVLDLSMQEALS
The assay is described as follows: FACS on HEK293T-hMSLN-B8 cells.
Protocol: as §3
In the case of B4, the “Maximum mean fluorescence intensity” value came to 8750.
Turning to B5, the “Maximum mean fluorescence intensity” value worked out at 9550.
With B6, the “Maximum mean fluorescence intensity” value came to 41900.
For the molecule B7, the “Maximum mean fluorescence intensity” value amounted to 32800.

The target of a further assay is T1, human MSLN-FL-his protein. The assay is described as follows: SPR (Biacore), antibody captured on Protein A chip.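 Note: measured at 25 °C, analyte injected 240 s in five twofold dilutions from 200 nM, dissociation up to 600 s, double-referenced, fitted with Langmuir 1:1 model.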 A general note: Surface plasmon resonance follows binding to a sensor surface in real time, without labels.
Protocol: The flow cell was set at 25° C. The sample block was set at 16° C. Both were pretreated with the running buffer. In each cycle, first, the antibody to be tested was captured using the Protein A chip, and then a single concentration of human MSLN-FL-his protein was injected. […] The association was determined by injecting different concentrations of human MSLN-FL-his in solution for 240 s on end, wherein the flow rate was 30 μL/min, and the protein was diluted in a 1:1 dilution ratio from 200 nM (see detailed results for actual concentrations tested) to obtain 5 concentrations in total. The dissociation phase was monitored for up to 600 s and triggered by switching from the sample solution to the running buffer. The surface was regenerated by washing with 10 mM glycine solution (pH 1.5) at a flow rate of 30 μL/min for 30 s. The difference in bulk refractive index was corrected by subtracting the responses obtained from the goat anti-human Fc surface. Blank injections were also subtracted (=double reference). To calculate the apparent KD and other kinetic parameters, the Langmuir 1:1 model was used.
With B1, the Kd came out at 5.13 nM, the koff worked out at 0.0103 s⁻¹ and the kon stood at 2.01e+06 M⁻¹ s⁻¹.
Turning to B2, binding was put at a Kd of 15.8 nM, the koff turned out to be 0.00143 s⁻¹ and the kon was 90600 M⁻¹ s⁻¹.
For the molecule B3, the affinity, expressed as Kd, was 1.51 nM; the koff is 0.00164 s⁻¹; the kon was determined as 1.09e+06 M⁻¹ s⁻¹.

The target in another assay is T1, human MSLN-FL-his protein. The assay is described as follows: competitive ELISA; row F2.13.3.
Protocol: as §1, §2
For the molecule B1, the competition rate is -975%.
The same measure, in the same setting: then B2, with 54%.
For B3, the competition rate is -740%.

In the next assay the target is T1, human MSLN-FL-his protein. Nature of the assay: competitive ELISA; row Tab142 (R1).
Protocol: as §1, §2
With B1, the competition rate stood at 82%.
For the molecule B2, the competition rate was -5%.
Still for that read-out and setting: for B3 the value was 98%.

The next assay concerns the target T1, human MSLN-FL-his protein. Nature of the assay: competitive ELISA; row F2.17.3.
Protocol: as §1, §2
Consider B1, for which the competition rate was -88%.
On the same count and under the same terms, then B2, with -31%.
On to B3, for which the competition rate is -34%.

In the next assay the target is T4, human MSLN-R3 protein (Met487-Ser606 of NCBI AAH09272.1) expressed on HEK293T-hMSLN-R3 cells (human, UniProt Q13421 487-606).
T4 construct: also called Region3
T4 sequence (Q13421 495-614): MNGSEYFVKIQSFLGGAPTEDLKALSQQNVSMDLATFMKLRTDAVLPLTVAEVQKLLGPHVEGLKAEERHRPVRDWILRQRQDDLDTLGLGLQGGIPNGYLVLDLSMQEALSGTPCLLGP
The assay is described as follows: FACS on HEK293T-hMSLN-R3 cells.
Protocol: as §3
As to B4, the response was half-maximal at 3.9 nM (EC50) and the “Maximum mean fluorescence intensity” value stood at 6660.
B5: the EC50 worked out at 0.95 nM and the “Maximum mean fluorescence intensity” value stood at 6930.
With B6, a half-maximal response (EC50) required 1.44 nM and the “Maximum mean fluorescence intensity” value amounted to 6260.
B7: the response was half-maximal at 0.31 nM (EC50) and the “Maximum mean fluorescence intensity” value is 7070.

In the next assay the target is T1, human MSLN-FL-his protein. The assay is described as follows: competitive ELISA; row F1.2.12.
Protocol: as §1, §2
B1: the competition rate is -484%.
With B2, the competition rate came out at 63%.
Still for that read-out and setting: for B3 the value was -401%.

In another assay the target is T1, human MSLN-FL-his protein. Nature of the assay: competitive ELISA; row F1.56.1.
Protocol: as §1, §2
Regarding B1, the competition rate is -324%.
In the case of B2, the competition rate came out at 74%.
On the same count and under the same terms, then B3, with -401%.

A further assay addresses T1, human MSLN-FL-his protein. Nature of the assay: competitive ELISA; row Tab107 (conformation).
Protocol: as §1, §2
As for B1, the competition rate was -42%.
The same measure, in the same setting: for B2 the value was 29%; for B3, -51%.
